Test results published in paper PMC10399917 (Journal of Molecular Cell Biology, 2023).

Assays:
[1] = molecular target: His-TMPRSS2 (transmembrane serine protease 2 with N-terminal 6x histidines) (UniProt O15393); test: […]
[2] = molecular target: VF-TMPRSS2 (transmembrane serine protease 2 with N-terminal Venus-FLAG) (UniProt O15393); test: […]
VF-TMPRSS2 (transmembrane serine protease 2 with N-terminal Venus-FLAG), sequence (O15393 whole entry): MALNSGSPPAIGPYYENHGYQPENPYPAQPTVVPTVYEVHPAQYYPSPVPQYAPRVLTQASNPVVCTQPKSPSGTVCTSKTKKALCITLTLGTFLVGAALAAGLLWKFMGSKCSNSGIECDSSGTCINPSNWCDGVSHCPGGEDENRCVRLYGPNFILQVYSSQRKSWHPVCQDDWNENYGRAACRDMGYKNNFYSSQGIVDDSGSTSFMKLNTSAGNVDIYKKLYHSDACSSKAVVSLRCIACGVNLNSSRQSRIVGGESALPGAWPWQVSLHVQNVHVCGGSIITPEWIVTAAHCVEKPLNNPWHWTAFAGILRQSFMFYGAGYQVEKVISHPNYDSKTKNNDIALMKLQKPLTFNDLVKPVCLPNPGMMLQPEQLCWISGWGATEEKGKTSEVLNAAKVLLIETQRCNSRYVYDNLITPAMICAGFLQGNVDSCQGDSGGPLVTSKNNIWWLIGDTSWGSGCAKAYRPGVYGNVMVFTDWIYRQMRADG

His-TMPRSS2 (transmembrane serine protease 2 with N-terminal 6x histidines), sequence (O15393 whole entry): as above

Substance | S/B ratio (TR-FRET signal-to-background) [1] | S/B ratio (TR-FRET signal-to-background) [2]
SPIKE-FLAG (SARS-CoV-2 SPIKE glycoprotein with C-terminal FLAG) (from UniProt P0DTC2 14-1273) (natural protein) | > 23 | 
SPIKE-His (SARS-CoV-2 SPIKE glycoprotein with C-terminal 6x histidines) (from UniProt P0DTC2 14-1273) (natural protein) |  | > 23
SPIKE-VF (SARS-CoV-2 SPIKE glycoprotein with C-terminal Venus-FLAG) (from UniProt P0DTC2 14-1273) (natural protein) | 23 | 
